The results in this text go back to patent publication US20250205280A1 (Janssen / Centocor, published 2025).

The target in assay [1] is T1, IL1RAP on H1975 cells (human, UniProt Q9NPH3 21-570).
T1 construct: whole, on cells; also called ILIRAP; H1975 tumor cell line expressing ILIRAP
T1 sequence (looked up): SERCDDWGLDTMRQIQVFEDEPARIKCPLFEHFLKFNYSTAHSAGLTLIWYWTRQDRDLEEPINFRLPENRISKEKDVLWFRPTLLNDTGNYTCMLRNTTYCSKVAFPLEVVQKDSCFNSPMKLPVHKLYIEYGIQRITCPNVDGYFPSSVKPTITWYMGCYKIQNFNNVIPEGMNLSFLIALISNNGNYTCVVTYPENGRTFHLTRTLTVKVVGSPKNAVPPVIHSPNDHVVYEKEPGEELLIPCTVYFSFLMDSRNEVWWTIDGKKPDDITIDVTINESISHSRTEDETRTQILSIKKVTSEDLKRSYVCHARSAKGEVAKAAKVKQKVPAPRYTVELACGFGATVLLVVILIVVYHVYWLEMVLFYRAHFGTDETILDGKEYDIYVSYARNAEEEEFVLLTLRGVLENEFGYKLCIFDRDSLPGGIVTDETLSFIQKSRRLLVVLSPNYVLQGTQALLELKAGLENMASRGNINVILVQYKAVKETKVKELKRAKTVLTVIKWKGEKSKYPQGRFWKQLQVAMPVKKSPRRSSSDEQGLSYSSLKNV
The assay is described as follows: flow cytometry on H1975 cells, % binding; top right panel. On the technique in general: A flow cytometer gives signals particle by particle.

Assay [2] has as its target T2, Vβ17 (TRBV19) T cell receptor on Vβ17+CD8+ T cells (human).
T2 construct: whole, on cells; also called Vβ17+ T cells
As to the kind of experiment: flow cytometry on M1 peptide expanded CD8+ T cells, PE anti-human IgG4 secondary, % binding; bottom left panel, second EC50 line, square curve (right of the circles). The procedure: (§1) Binding of Vβ17 bispecific antibodies to its respective tumor associated antigen (TAA) expressing cell line and CD8+ T cells was carried out by flow cytometry. Briefly, 50,000 target cells or CD8+ T cells were incubated at 4° C. for 45 minutes with serial dilutions of various bispecific antibodies or its null arm control bispecific antibodies. After washing with wash buffer (PBS+2% FBS), bispecific antibody bound to cell surface was detected by incubating the cells with PE labelled mouse anti human IgG4 secondary antibody (SouthernBiotech, Birmingham, AL) for 30 minutes at 4° C. Cells were washed with wash buffer (PBS+2% FBS) and the fluorescence of stained cells was measured on Novocyte flow cytometer. Cells were visualized on forward and sideward scatter and doublets were excluded. No secondary antibody control was used to establish background fluorescence and to gate on specific population. Background value was subtracted from main samples to get specific binding value. […] For all binding assays, tumor associated antigen (TAA) expression on cell lines and the abundance of Vβ17+ cells among Pan-T cells or CD8+ T cells were assessed by staining them with specific monoclonal antibody.
(§2) Mouse anti-human IgG4 Fc-PE secondary antibody was used to detect the bispecific antibody using FACS method.

For the next assay, the target named is T3, CD123 on Kasumi-3 cells (UniProt P26951 19-378, limits assumed).
T3 construct: whole, on cells; also called tumor associated antigen (TAA) on Kasumi-3
T3 sequence (P26951 19-378 limits assumed): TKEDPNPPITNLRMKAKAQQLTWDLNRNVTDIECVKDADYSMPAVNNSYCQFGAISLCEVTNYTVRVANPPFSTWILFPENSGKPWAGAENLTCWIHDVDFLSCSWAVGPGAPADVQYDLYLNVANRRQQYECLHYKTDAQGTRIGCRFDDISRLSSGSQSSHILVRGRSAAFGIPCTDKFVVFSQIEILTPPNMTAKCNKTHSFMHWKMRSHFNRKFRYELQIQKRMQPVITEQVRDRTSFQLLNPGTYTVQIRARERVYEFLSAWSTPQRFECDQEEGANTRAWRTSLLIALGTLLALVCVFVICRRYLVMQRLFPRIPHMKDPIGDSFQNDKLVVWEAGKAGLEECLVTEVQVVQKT
The assay is described as follows: flow cytometry on Kasumi-3 cells, % binding; top left panel.

Assay [3] has as its target T2, Vβ17 (TRBV19) T cell receptor on …. The assay is described as follows: flow cytometry on M1 peptide expanded CD8+ T cells, PE anti-human IgG4 secondary, % binding; bottom middle panel, second EC50 line, square curve (right of the circles). The procedure: as §1, §2
For assay [4] the target is unchanged. The assay is described as follows: flow cytometry on M1 peptide expanded CD8+ T cells, PE anti-human IgG4 secondary, % binding; bottom right panel, second EC50 line, square curve (right of the circles). The procedure:
as §1, §2

For a further assay, the target named is T4, PSMA on 22Rv1 cells (human, UniProt Q04609 1-750).
T4 construct: whole, on cells; also called 22Rv1 tumor cell line expressing PSMA
T4 sequence (Q04609 whole entry): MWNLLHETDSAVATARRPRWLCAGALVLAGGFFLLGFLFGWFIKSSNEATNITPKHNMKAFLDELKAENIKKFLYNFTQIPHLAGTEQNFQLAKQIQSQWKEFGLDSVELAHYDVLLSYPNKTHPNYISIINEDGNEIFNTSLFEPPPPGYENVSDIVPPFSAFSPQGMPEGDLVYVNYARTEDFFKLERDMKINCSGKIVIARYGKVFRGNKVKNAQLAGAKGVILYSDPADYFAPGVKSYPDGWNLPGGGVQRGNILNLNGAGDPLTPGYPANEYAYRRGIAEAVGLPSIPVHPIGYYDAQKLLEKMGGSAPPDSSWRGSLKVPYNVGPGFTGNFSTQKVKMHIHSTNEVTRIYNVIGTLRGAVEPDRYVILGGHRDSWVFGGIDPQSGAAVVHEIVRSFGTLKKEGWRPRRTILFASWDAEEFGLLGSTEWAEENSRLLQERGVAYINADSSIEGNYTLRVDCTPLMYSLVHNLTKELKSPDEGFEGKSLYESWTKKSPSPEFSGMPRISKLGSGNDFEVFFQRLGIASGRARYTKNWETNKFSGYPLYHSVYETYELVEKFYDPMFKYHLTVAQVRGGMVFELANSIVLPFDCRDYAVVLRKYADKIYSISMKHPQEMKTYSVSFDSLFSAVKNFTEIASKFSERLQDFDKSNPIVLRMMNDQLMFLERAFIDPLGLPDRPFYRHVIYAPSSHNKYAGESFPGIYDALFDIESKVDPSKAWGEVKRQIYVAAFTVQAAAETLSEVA
As to the kind of experiment: flow cytometry on 22Rv1 cells, % binding; top middle panel.

Assay [5] deals with T2, Vβ17 (TRBV19) T cell receptor on …. The assay is described as follows: flow cytometry on total (Vβ17 non-depleted) CD8+ T cells from PBMCs, % binding. As for the experimental part: as §1
For assay [6], the target named is T1, IL1RAP on H1975 cells. The assay is described as follows: flow cytometry on H1975 cells expressing IL1RAP, detected with anti-human IgG4 Fc-PE. As for the experimental part:
as §1

Assay [7] concerns the target T2, Vβ17 (TRBV19) T cell receptor on …. As to the kind of experiment: flow cytometry on M1 peptide expanded CD8+ T cells, PE anti-human IgG4 secondary, % binding; bottom right panel, first EC50 line, circle curve (left of the squares). The procedure: as §1, §2
The target is the same in assay [8]. The assay is described as follows: flow cytometry on enriched M1 peptide-stimulated CD8+ T cells (day 14), frequency of positive cells, anti-human IgG4 Fc-PE. As for the experimental part: as §1, §2

T2 sequence (A0A075B6N1 22-114): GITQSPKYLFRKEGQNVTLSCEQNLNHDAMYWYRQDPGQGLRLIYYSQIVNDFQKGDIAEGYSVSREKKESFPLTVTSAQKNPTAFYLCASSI

B1: Vβ17/Null (bispecific antibody, human IgG4 S228P, kappa, F234A L235A)
Vβ17 half antibody (B17B21; light chain, linker and heavy chain in one polypeptide): DIQMTQSPSSLSASVGDRVTITCRSSQSLVHSNGNTYLHWYQQKPGKAPKFLIYKVSNRFSGVPSRFSGSGSGTDFTLTISSLQPEDFATYYCSQSTHVPFTFGQGTKLEIKRTVAAPSVFIFPPSDEQLKSGTASVVCLLNNFYPREAKVQWKVDNALQSGNSQESVTEQDSKDSTYSLSSTLTLSKADYEKHKVYACEVTHQGLSSPVTKSFNRGECGGSEGKSSGSGSESKSTEGKSSGSGSESKSTGGSQVQLQESGPGLVKPSETLSLTCTVSGYSITSGYFWNWIRQPPGKGLEWIGYISYDGSNNYNPSLKSRVTISRDTSKNQFSLKLSSVTAADTAVYYCASPSPGTGYAVDYWGQGTLVTVSSASTKGPSVFPLAPCSRSTSESTAALGCLVKDYFPEPVTVSWNSGALTSGVHTFPAVLQSSGLYSLSSVVTVPSSSLGTKTYTCNVDHKPSNTKVDKRVESKYGPPCPPCPAPEAAGGPSVFLFPPKPKDTLMISRTPEVTCVVVDVSQEDPEVQFNWYVDGVEVHNAKTKPREEQFNSTYRVVSVLTVLHQDWLNGKEYKCKVSNKGLPSSIEKTISKAKGQPREPQVYTLPPSQEEMTKNQVSLSCAVKGFYPSDIAVEWESNGQPENNYKTTPPVLDSDGSFFLVSRLTVDKSRWQEGNVFSCSVMHEALHNRFTQKSLSLSLGK
null half antibody (B23B49; light chain, linker and heavy chain in one polypeptide): not shown
notes: also called Vβ17/NULL arm control bispecific antibody; Vβ17XNULL
What is called EC50 is the midpoint of the concentration-response curve. A low value points to an effect from little substance. By EC50 (read off the curve) is commonly meant the concentration that produces a half-maximal response. Read a high EC50 (read off the curve) as lower potency in that assay. As to B1, the binding result is given as “no binding (tested: about 30 µg/mL)” in the assay with IL1RAP on H1975 cells [1], “no binding (tested: about 5 µg/mL)” with CD123 on Kasumi-3 cells and “no binding (tested: 10 µg/mL)” with PSMA on 22Rv1 cells. The figures for the EC50 in assay [2], in assay [3] and in assay [4] were 2.4 nM, 3.75 nM and 2.8 nM, respectively. Besides, the “EC50 (read off the curve)” value in [5] is roughly 0.3 µg/mL.

B2: Vβ17/IL1RAP bispecific antibody (bispecific antibody, human IgG4 S228P, kappa, lambda, F234A L235A)
chain 1: DIQMTQSPSSLSASVGDRVTITCRSSQSLVHSNGNTYLHWYQQKPGKAPKFLIYKVSNRFSGVPSRFSGSGSGTDFTLTISSLQPEDFATYYCSQSTHVPFTFGQGTKLEIKRTVAAPSVFIFPPSDEQLKSGTASVVCLLNNFYPREAKVQWKVDNALQSGNSQESVTEQDSKDSTYSLSSTLTLSKADYEKHKVYACEVTHQGLSSPVTKSFNRGECGGSEGKSSGSGSESKSTEGKSSGSGSESKSTGGSQVQLQESGPGLVKPSETLSLTCTVSGYSITSGYFWNWIRQPPGKGLEWIGYISYDGSNNYNPSLKSRVTISRDTSKNQFSLKLSSVTAADTAVYYCASPSPGTGYAVDYWGQGTLVTVSSASTKGPSVFPLAPCSRSTSESTAALGCLVKDYFPEPVTVSWNSGALTSGVHTFPAVLQSSGLYSLSSVVTVPSSSLGTKTYTCNVDHKPSNTKVDKRVESKYGPPCPPCPAPEAAGGPSVFLFPPKPKDTLMISRTPEVTCVVVDVSQEDPEVQFNWYVDGVEVHNAKTKPREEQFNSTYRVVSVLTVLHQDWLNGKEYKCKVSNKGLPSSIEKTISKAKGQPREPQVYTLPPSQEEMTKNQVSLSCAVKGFYPSDIAVEWESNGQPENNYKTTPPVLDSDGSFFLVSRLTVDKSRWQEGNVFSCSVMHEALHNRFTQKSLSLSLGK
chain 2: QSALTQPRSVSGSPGHSVTISCTGTSSDVGDYNYVSWYQQRPGKVPKLLIYDVSKRPSGVPDRFSGSKSGNTASLTISGLQAEDEAIYFCASYAGNYNVVFGGGTKLTVLGQPKAAPSVTLFPPSSEELQANKATLVCLISDFYPGAVTVAWKADSSPVKAGVETTTPSKQSNNKYAASSYLSLTPEQWKSHRSYSCQVTHEGSTVEKTVAPTECSGGSEGKSSGSGSESKSTEGKSSGSGSESKSTGGSQVQLVQSGSELKKPGASVKVSCKASGYTFNTYAMNWVRQAPGQGLEWMGWINTNTGNPTYAQGFTGRFVFSLDTSVSTAYLQISSLKAEDTAVYYCARRYFDWLLGAFDIWGQGTMVTVSSASTKGPSVFPLAPCSRSTSESTAALGCLVKDYFPEPVTVSWNSGALTSGVHTFPAVLQSSGLYSLSSVVTVPSSSLGTKTYTCNVDHKPSNTKVDKRVESKYGPPCPPCPAPEAAGGPSVFLFPPKPKDTLMISRTPEVTCVVVDVSQEDPEVQFNWYVDGVEVHNAKTKPREEQFNSTYRVVSVLTVLHQDWLNGKEYKCKVSNKGLPSSIEKTISKAKGQPREPQVYTLPPSQEEMTKNQVSLWCLVKGFYPSDIAVEWESNGQPENNYKTTPPVLDSDGSFFLYSRLTVDKSRWQEGNVFSCSVMHEALHNHYTQKSLSLSLGK
notes: also called Vβ17XIL1RAP
As for B2, the 50% effective concentration (EC50) in the assay with IL1RAP on H1975 cells [6] was 11.3 nM; in assay [7], 0.33 nM; in [8] it was 2.8 nM.
